According to patent publication US20160159924A1 (Novo Nordisk, published 2016):

Target: T1, recombinant human sc-uPA (human, UniProt P00749 21-431)
T1 construct: 411 amino acid single-chain zymogen expressed in HEK293; the 20-residue signal peptide is not present in the mature protein; also called human single-chain uPA; pro-uPA
Assay: SPR, mAb immobilised
Method: The binding affinity to recombinant human sc-uPA protein (SEQ ID […]) was measured by surface plasmon resonance (SPR).
The experiments were performed on a Biacore™ instrument (GE Healthcare) and analysed with the BIAcore 4000 Evaluation Software. Anti-human uPA mAb variants were directly immobilized at 150-600 RU on flow cells of a CM5 sensor chip (GE Healthcare; cat. # BR-1000-12) via amine coupling, respectively. Recombinant human sc-uPA was diluted in HBS-N (GE Healthcare Cat BR-1006-70) with 1% BSA buffer with a dilution factor 3× ranging 1000-0.13 nM. Recombinant human sc-uPA was injected for 60 s, followed by a 600 s dissociation phase. Binding curves were measured at 25° C. with a flow rate of 30 μL/min. Regeneration of the chip surface was performed with pH1.5 Glycine for 25 s at 30 μl/min. Determination of the kinetic parameters was performed by fitting with a 1:1 binding model. Binding affinities were calculated and are stated in Table 20 below.

Row | Binder | Kd [nM]
1 | rec0266-0000-0010-VL_N90K (antibody, mouse IgG1, name in Kabat numbering, V domains shown) VH: DVKLVESGGGLVKPGGSLKLSCVASGFTFSSYTMSWVRQTPEKRLEWVATISGGGSHIYYADSVKGRFTISRDNAKNTLYLQMSSLKSEDTAIYYCTRDGRDGSWFAYWGQGTLVTVSA VL: DIVMTQSPATLSVTPGDRVSLSCRTSQSIGDYLHWYQQKSHESPRLLIKYVSQSISGIPSRFSGSGSGSDFTLSINSVESEDVGVYYCQKSHSFPLTFGSGTKLELKR | 1.1
2 | rec0266-0000-0010-VL_N90L (antibody, mouse IgG1, name in Kabat numbering, V domains shown) VH: DVKLVESGGGLVKPGGSLKLSCVASGFTFSSYTMSWVRQTPEKRLEWVATISGGGSHIYYADSVKGRFTISRDNAKNTLYLQMSSLKSEDTAIYYCTRDGRDGSWFAYWGQGTLVTVSA VL: DIVMTQSPATLSVTPGDRVSLSCRTSQSIGDYLHWYQQKSHESPRLLIKYVSQSISGIPSRFSGSGSGSDFTLSINSVESEDVGVYYCQLSHSFPLTFGSGTKLELKR | 0.61
3 | rec0266-0000-0010-VL_N90T (antibody, mouse IgG1, name in Kabat numbering, V domains shown) VH: DVKLVESGGGLVKPGGSLKLSCVASGFTFSSYTMSWVRQTPEKRLEWVATISGGGSHIYYADSVKGRFTISRDNAKNTLYLQMSSLKSEDTAIYYCTRDGRDGSWFAYWGQGTLVTVSA VL: DIVMTQSPATLSVTPGDRVSLSCRTSQSIGDYLHWYQQKSHESPRLLIKYVSQSISGIPSRFSGSGSGSDFTLSINSVESEDVGVYYCQTSHSFPLTFGSGTKLELKR | 0.48
4 | rec0266-0000-0010-VL_N90R (antibody, mouse IgG1, name in Kabat numbering, V domains shown) VH: DVKLVESGGGLVKPGGSLKLSCVASGFTFSSYTMSWVRQTPEKRLEWVATISGGGSHIYYADSVKGRFTISRDNAKNTLYLQMSSLKSEDTAIYYCTRDGRDGSWFAYWGQGTLVTVSA VL: DIVMTQSPATLSVTPGDRVSLSCRTSQSIGDYLHWYQQKSHESPRLLIKYVSQSISGIPSRFSGSGSGSDFTLSINSVESEDVGVYYCQRSHSFPLTFGSGTKLELKR | 1.9
5 | rec0266-0000-0010-VL_N90Y (antibody, mouse IgG1, name in Kabat numbering, V domains shown) VH: DVKLVESGGGLVKPGGSLKLSCVASGFTFSSYTMSWVRQTPEKRLEWVATISGGGSHIYYADSVKGRFTISRDNAKNTLYLQMSSLKSEDTAIYYCTRDGRDGSWFAYWGQGTLVTVSA VL: DIVMTQSPATLSVTPGDRVSLSCRTSQSIGDYLHWYQQKSHESPRLLIKYVSQSISGIPSRFSGSGSGSDFTLSINSVESEDVGVYYCQYSHSFPLTFGSGTKLELKR | 0.8
6 | rec0266-0000-0010-VL_N90V (antibody, mouse IgG1, name in Kabat numbering, V domains shown) VH: DVKLVESGGGLVKPGGSLKLSCVASGFTFSSYTMSWVRQTPEKRLEWVATISGGGSHIYYADSVKGRFTISRDNAKNTLYLQMSSLKSEDTAIYYCTRDGRDGSWFAYWGQGTLVTVSA VL: DIVMTQSPATLSVTPGDRVSLSCRTSQSIGDYLHWYQQKSHESPRLLIKYVSQSISGIPSRFSGSGSGSDFTLSINSVESEDVGVYYCQVSHSFPLTFGSGTKLELKR | 0.58
7 | rec0266-0000-0010-VL_N90S (antibody, mouse IgG1, name in Kabat numbering, V domains shown) VH: DVKLVESGGGLVKPGGSLKLSCVASGFTFSSYTMSWVRQTPEKRLEWVATISGGGSHIYYADSVKGRFTISRDNAKNTLYLQMSSLKSEDTAIYYCTRDGRDGSWFAYWGQGTLVTVSA VL: DIVMTQSPATLSVTPGDRVSLSCRTSQSIGDYLHWYQQKSHESPRLLIKYVSQSISGIPSRFSGSGSGSDFTLSINSVESEDVGVYYCQSSHSFPLTFGSGTKLELKR | 0.38
8 | rec0266-0000-0010-VL_N90P (antibody, mouse IgG1, name in Kabat numbering, V domains shown) VH: DVKLVESGGGLVKPGGSLKLSCVASGFTFSSYTMSWVRQTPEKRLEWVATISGGGSHIYYADSVKGRFTISRDNAKNTLYLQMSSLKSEDTAIYYCTRDGRDGSWFAYWGQGTLVTVSA VL: DIVMTQSPATLSVTPGDRVSLSCRTSQSIGDYLHWYQQKSHESPRLLIKYVSQSISGIPSRFSGSGSGSDFTLSINSVESEDVGVYYCQPSHSFPLTFGSGTKLELKR | 0.62
9 | rec0266-0000-0010-VL_N90Q (antibody, mouse IgG1, name in Kabat numbering, V domains shown) VH: DVKLVESGGGLVKPGGSLKLSCVASGFTFSSYTMSWVRQTPEKRLEWVATISGGGSHIYYADSVKGRFTISRDNAKNTLYLQMSSLKSEDTAIYYCTRDGRDGSWFAYWGQGTLVTVSA VL: DIVMTQSPATLSVTPGDRVSLSCRTSQSIGDYLHWYQQKSHESPRLLIKYVSQSISGIPSRFSGSGSGSDFTLSINSVESEDVGVYYCQQSHSFPLTFGSGTKLELKR | 0.32

Other lines, results leading:

Row | Kd [nM] | Binder
10 | 10 | rec0266-0000-0010-VL_S91E (antibody, mouse IgG1, name in Kabat numbering, V domains shown) VH: DVKLVESGGGLVKPGGSLKLSCVASGFTFSSYTMSWVRQTPEKRLEWVATISGGGSHIYYADSVKGRFTISRDNAKNTLYLQMSSLKSEDTAIYYCTRDGRDGSWFAYWGQGTLVTVSA VL: DIVMTQSPATLSVTPGDRVSLSCRTSQSIGDYLHWYQQKSHESPRLLIKYVSQSISGIPSRFSGSGSGSDFTLSINSVESEDVGVYYCQNEHSFPLTFGSGTKLELKR
11 | 11 | rec0266-0000-0010-VL_S91F (antibody, mouse IgG1, name in Kabat numbering, V domains shown) VH: DVKLVESGGGLVKPGGSLKLSCVASGFTFSSYTMSWVRQTPEKRLEWVATISGGGSHIYYADSVKGRFTISRDNAKNTLYLQMSSLKSEDTAIYYCTRDGRDGSWFAYWGQGTLVTVSA VL: DIVMTQSPATLSVTPGDRVSLSCRTSQSIGDYLHWYQQKSHESPRLLIKYVSQSISGIPSRFSGSGSGSDFTLSINSVESEDVGVYYCQNFHSFPLTFGSGTKLELKR
12 | 2.1 | rec0266-0000-0010-VL_S91D (antibody, mouse IgG1, name in Kabat numbering, V domains shown) VH: DVKLVESGGGLVKPGGSLKLSCVASGFTFSSYTMSWVRQTPEKRLEWVATISGGGSHIYYADSVKGRFTISRDNAKNTLYLQMSSLKSEDTAIYYCTRDGRDGSWFAYWGQGTLVTVSA VL: DIVMTQSPATLSVTPGDRVSLSCRTSQSIGDYLHWYQQKSHESPRLLIKYVSQSISGIPSRFSGSGSGSDFTLSINSVESEDVGVYYCQNDHSFPLTFGSGTKLELKR
13 | 3.2 | rec0266-0000-0010-VL_S91K (antibody, mouse IgG1, name in Kabat numbering, V domains shown) VH: DVKLVESGGGLVKPGGSLKLSCVASGFTFSSYTMSWVRQTPEKRLEWVATISGGGSHIYYADSVKGRFTISRDNAKNTLYLQMSSLKSEDTAIYYCTRDGRDGSWFAYWGQGTLVTVSA VL: DIVMTQSPATLSVTPGDRVSLSCRTSQSIGDYLHWYQQKSHESPRLLIKYVSQSISGIPSRFSGSGSGSDFTLSINSVESEDVGVYYCQNKHSFPLTFGSGTKLELKR
14 | 2.9 | rec0266-0000-0010-VL_S91I (antibody, mouse IgG1, name in Kabat numbering, V domains shown) VH: DVKLVESGGGLVKPGGSLKLSCVASGFTFSSYTMSWVRQTPEKRLEWVATISGGGSHIYYADSVKGRFTISRDNAKNTLYLQMSSLKSEDTAIYYCTRDGRDGSWFAYWGQGTLVTVSA VL: DIVMTQSPATLSVTPGDRVSLSCRTSQSIGDYLHWYQQKSHESPRLLIKYVSQSISGIPSRFSGSGSGSDFTLSINSVESEDVGVYYCQNIHSFPLTFGSGTKLELKR
15 | 1.3 | rec0266-0000-0010-VL_S91A (antibody, mouse IgG1, name in Kabat numbering, V domains shown) VH: DVKLVESGGGLVKPGGSLKLSCVASGFTFSSYTMSWVRQTPEKRLEWVATISGGGSHIYYADSVKGRFTISRDNAKNTLYLQMSSLKSEDTAIYYCTRDGRDGSWFAYWGQGTLVTVSA VL: DIVMTQSPATLSVTPGDRVSLSCRTSQSIGDYLHWYQQKSHESPRLLIKYVSQSISGIPSRFSGSGSGSDFTLSINSVESEDVGVYYCQNAHSFPLTFGSGTKLELKR
16 | 5.3 | rec0266-0000-0010-VL_S91H (antibody, mouse IgG1, name in Kabat numbering, V domains shown) VH: DVKLVESGGGLVKPGGSLKLSCVASGFTFSSYTMSWVRQTPEKRLEWVATISGGGSHIYYADSVKGRFTISRDNAKNTLYLQMSSLKSEDTAIYYCTRDGRDGSWFAYWGQGTLVTVSA VL: DIVMTQSPATLSVTPGDRVSLSCRTSQSIGDYLHWYQQKSHESPRLLIKYVSQSISGIPSRFSGSGSGSDFTLSINSVESEDVGVYYCQNHHSFPLTFGSGTKLELKR
